Laboratory results from patent publication US20150344570A1 (published 2015).

B1: GpH7-B3 variant A330_08L/GpL16-k0 (antibody, human IgG1, kappa)
heavy: not shown
light: DIVMTQSPLSLPVTPGEPASISCQASESLVHSNRNTYLHWYLQKPGQSPQLLIYKVSNRFSGVPDRFSGSGSGTDFTLKISRVEAEDVGVYYCSQNTHVPPTFGQGTKVEIERTVAAPSVFIFPPSDEQLKSGTASVVCLLNNFYPREAKVQWKVDNALQSGNSQESVTEQDSKDSTYSLSSTLTLSKADYEKHKVYACEVTHQGLSSPVTKSFNRGEC
notes: also called Ho Ab A330_08L
B2: GpH7-B3 variant A330_09D/GpL16-k0 (antibody, human IgG1, kappa)
heavy: not shown
light: B1 light
notes: also called Ho Ab A330_09D
B3: GpH7-B3 variant A330_11K/GpL16-k0 (antibody, human IgG1, kappa)
heavy: not shown
light: B1 light
notes: also called Ho Ab A330_11K
B4: GpH7-B3 variant A330_14T/GpL16-k0 (antibody, human IgG1, kappa)
heavy: not shown
light: B1 light
notes: also called Ho Ab A330_14T
B5: GpH7-B3 variant A330_16H/GpL16-k0 (antibody, human IgG1, kappa)
heavy: not shown
light: B1 light
notes: also called Ho Ab A330_16H
B6: GpH7-B3 variant E269_02A/GpL16-k0 (antibody, human IgG1, kappa)
heavy: not shown
light: B1 light
notes: also called Ho Ab E269_02A
B7: GpH7-B3 variant E269_03V/GpL16-k0 (antibody, human IgG1, kappa)
heavy: not shown
light: B1 light
notes: also called Ho Ab E269_03V
B8: GpH7-B3 variant E269_04F/GpL16-k0 (antibody, human IgG1, kappa)
heavy: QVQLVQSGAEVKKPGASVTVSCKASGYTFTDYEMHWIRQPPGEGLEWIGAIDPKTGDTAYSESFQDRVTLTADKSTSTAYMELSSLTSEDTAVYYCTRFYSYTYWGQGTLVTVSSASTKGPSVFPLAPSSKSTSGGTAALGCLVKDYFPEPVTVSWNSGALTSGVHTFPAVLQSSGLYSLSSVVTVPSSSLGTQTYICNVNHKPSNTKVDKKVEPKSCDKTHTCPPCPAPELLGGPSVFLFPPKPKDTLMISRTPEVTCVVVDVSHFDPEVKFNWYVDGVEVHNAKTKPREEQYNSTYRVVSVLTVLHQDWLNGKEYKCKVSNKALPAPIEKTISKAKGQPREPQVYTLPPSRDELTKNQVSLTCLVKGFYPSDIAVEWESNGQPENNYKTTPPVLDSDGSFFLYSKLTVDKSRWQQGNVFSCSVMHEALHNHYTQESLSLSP
light: B1 light
notes: also called Ho Ab E269_04F
B9: GpH7-B3 variant E269_05P/GpL16-k0 (antibody, human IgG1, kappa)
heavy: not shown
light: B1 light
notes: also called Ho Ab E269_05P
B10: GpH7-B3 variant E269_06M/GpL16-k0 (antibody, human IgG1, kappa)
heavy: not shown
light: B1 light
notes: also called Ho Ab E269_06M
B11: GpH7-B3 variant E269_07I/GpL16-k0 (antibody, human IgG1, kappa)
heavy: not shown
light: B1 light
notes: also called Ho Ab E269_07I
B12: GpH7-B3 variant E269_08L/GpL16-k0 (antibody, human IgG1, kappa)
heavy: not shown
light: B1 light
notes: also called Ho Ab E269_08L
B13: GpH7-B3 variant E269_09D/GpL16-k0 (antibody, human IgG1, kappa)
heavy: not shown
light: B1 light
notes: also called Ho Ab E269_09D
B14: GpH7-B3 variant E269_13S/GpL16-k0 (antibody, human IgG1, kappa)
heavy: not shown
light: B1 light
notes: also called Ho Ab E269_13S
B15: GpH7-B3 variant E269_14T/GpL16-k0 (antibody, human IgG1, kappa)
heavy: not shown
light: B1 light
notes: also called Ho Ab E269_14T
B16: GpH7-B3 variant E269_15Y/GpL16-k0 (antibody, human IgG1, kappa)
heavy: not shown
light: B1 light
notes: also called Ho Ab E269_15Y
B17: GpH7-B3 variant E269_16H/GpL16-k0 (antibody, human IgG1, kappa)
heavy: not shown
light: B1 light
notes: also called Ho Ab E269_16H
B18: GpH7-B3 variant E269_18N/GpL16-k0 (antibody, human IgG1, kappa)
heavy: not shown
light: B1 light
notes: also called Ho Ab E269_18N
B19: GpH7-B3 variant E269_19Q/GpL16-k0 (antibody, human IgG1, kappa)
heavy: not shown
light: B1 light
notes: also called Ho Ab E269_19Q
B20: GpH7-B3 variant E269_20W/GpL16-k0 (antibody, human IgG1, kappa)
heavy: not shown
light: B1 light
notes: also called Ho Ab E269_20W
B21: GpH7-B3 variant E333_01G/GpL16-k0 (antibody, human IgG1, kappa)
heavy: not shown
light: B1 light
notes: also called Ho Ab E333_01G
B22: GpH7-B3 variant E333_02A/GpL16-k0 (antibody, human IgG1, kappa)
heavy: not shown
light: B1 light
notes: also called Ho Ab E333_02A
B23: GpH7-B3 variant E333_03V/GpL16-k0 (antibody, human IgG1, kappa)
heavy: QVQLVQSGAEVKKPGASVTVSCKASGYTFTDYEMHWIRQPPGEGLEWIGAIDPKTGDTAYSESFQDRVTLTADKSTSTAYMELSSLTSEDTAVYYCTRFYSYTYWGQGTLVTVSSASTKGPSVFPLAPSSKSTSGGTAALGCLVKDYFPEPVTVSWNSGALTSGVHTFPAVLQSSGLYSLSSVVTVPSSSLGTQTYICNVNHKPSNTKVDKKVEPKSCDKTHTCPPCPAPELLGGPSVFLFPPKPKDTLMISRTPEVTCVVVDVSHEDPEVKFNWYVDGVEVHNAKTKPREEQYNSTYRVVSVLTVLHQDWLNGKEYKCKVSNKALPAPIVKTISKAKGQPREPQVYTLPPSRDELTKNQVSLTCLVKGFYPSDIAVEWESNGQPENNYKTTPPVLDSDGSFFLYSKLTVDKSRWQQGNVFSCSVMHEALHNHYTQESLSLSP
light: B1 light
notes: also called Ho Ab E333_03V
B24: GpH7-B3 variant E333_04F/GpL16-k0 (antibody, human IgG1, kappa)
heavy: not shown
light: B1 light
notes: also called Ho Ab E333_04F
B25: GpH7-B3 variant E333_05P/GpL16-k0 (antibody, human IgG1, kappa)
heavy: not shown
light: B1 light
notes: also called Ho Ab E333_05P
B26: GpH7-B3 variant E333_06M/GpL16-k0 (antibody, human IgG1, kappa)
heavy: not shown
light: B1 light
notes: also called Ho Ab E333_06M
B27: GpH7-B3 variant E333_07I/GpL16-k0 (antibody, human IgG1, kappa)
heavy: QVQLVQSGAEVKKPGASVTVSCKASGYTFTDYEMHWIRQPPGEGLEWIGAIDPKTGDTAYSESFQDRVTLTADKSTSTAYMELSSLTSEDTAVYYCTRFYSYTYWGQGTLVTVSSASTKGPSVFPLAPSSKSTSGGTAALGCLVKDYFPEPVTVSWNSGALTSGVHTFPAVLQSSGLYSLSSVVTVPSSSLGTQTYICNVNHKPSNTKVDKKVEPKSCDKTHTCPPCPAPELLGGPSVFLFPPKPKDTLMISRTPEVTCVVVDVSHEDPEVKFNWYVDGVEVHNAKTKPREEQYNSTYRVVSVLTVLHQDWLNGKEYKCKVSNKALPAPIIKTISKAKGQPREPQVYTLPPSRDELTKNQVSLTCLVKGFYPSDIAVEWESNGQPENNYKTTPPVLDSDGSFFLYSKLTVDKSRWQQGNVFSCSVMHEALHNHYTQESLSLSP
light: B1 light
notes: also called Ho Ab E333_07I
B28: GpH7-B3 variant E333_08L/GpL16-k0 (antibody, human IgG1, kappa)
heavy: not shown
light: B1 light
notes: also called Ho Ab E333_08L
B29: GpH7-B3 variant E333_09D/GpL16-k0 (antibody, human IgG1, kappa)
heavy: not shown
light: B1 light
notes: also called Ho Ab E333_09D
B30: GpH7-B3 variant E333_11K/GpL16-k0 (antibody, human IgG1, kappa)
heavy: not shown
light: B1 light
notes: also called Ho Ab E333_11K
B31: GpH7-B3 variant E333_12R/GpL16-k0 (antibody, human IgG1, kappa)
heavy: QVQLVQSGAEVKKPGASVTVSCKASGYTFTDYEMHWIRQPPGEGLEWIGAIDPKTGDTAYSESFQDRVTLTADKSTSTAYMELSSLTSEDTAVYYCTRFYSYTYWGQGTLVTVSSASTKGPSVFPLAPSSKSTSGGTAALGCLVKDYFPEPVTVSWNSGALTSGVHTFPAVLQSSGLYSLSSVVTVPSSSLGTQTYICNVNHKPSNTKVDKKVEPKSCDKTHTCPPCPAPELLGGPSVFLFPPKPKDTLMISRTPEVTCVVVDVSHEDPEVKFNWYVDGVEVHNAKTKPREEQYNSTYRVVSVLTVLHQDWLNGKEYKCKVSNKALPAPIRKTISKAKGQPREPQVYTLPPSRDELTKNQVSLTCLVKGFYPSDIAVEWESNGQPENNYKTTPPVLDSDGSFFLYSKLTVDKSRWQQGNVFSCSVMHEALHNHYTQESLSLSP
light: B1 light
notes: also called Ho Ab E333_12R
B32: GpH7-B3 variant E333_13S/GpL16-k0 (antibody, human IgG1, kappa)
heavy: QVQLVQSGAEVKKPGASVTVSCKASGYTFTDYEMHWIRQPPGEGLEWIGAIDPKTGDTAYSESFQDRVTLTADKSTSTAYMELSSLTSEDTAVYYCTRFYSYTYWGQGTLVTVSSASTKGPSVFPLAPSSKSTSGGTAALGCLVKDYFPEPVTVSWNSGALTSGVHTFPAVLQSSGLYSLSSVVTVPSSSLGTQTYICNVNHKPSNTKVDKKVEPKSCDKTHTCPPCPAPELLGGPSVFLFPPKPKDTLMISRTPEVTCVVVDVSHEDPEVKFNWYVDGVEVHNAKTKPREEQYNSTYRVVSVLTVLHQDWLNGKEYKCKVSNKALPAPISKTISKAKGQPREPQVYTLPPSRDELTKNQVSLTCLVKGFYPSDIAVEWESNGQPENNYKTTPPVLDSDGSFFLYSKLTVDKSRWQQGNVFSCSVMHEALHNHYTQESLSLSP
light: B1 light
notes: also called Ho Ab E333_13S
B33: GpH7-B3 variant E333_14T/GpL16-k0 (antibody, human IgG1, kappa)
heavy: not shown
light: B1 light
notes: also called Ho Ab E333_14T
B34: GpH7-B3 variant E333_15Y/GpL16-k0 (antibody, human IgG1, kappa)
heavy: not shown
light: B1 light
notes: also called Ho Ab E333_15Y
B35: GpH7-B3 variant E333_16H/GpL16-k0 (antibody, human IgG1, kappa)
heavy: not shown
light: B1 light
notes: also called Ho Ab E333_16H
B36: GpH7-B3 variant G236_02A/GpL16-k0 (antibody, human IgG1, kappa)
heavy: not shown
light: B1 light
notes: also called Ho Ab G236_02A
B37: GpH7-B3 variant G236_20W/GpL16-k0 (antibody, human IgG1, kappa)
heavy: not shown
light: B1 light
notes: also called Ho Ab G236_20W
B38: GpH7-B3 variant H268_02A/GpL16-k0 (antibody, human IgG1, kappa)
heavy: not shown
light: B1 light
notes: also called Ho Ab H268_02A
B39: GpH7-B3 variant H268_05P/GpL16-k0 (antibody, human IgG1, kappa)
heavy: not shown
light: B1 light
notes: also called Ho Ab H268_05P
B40: GpH7-B3 variant H268_07I/GpL16-k0 (antibody, human IgG1, kappa)
heavy: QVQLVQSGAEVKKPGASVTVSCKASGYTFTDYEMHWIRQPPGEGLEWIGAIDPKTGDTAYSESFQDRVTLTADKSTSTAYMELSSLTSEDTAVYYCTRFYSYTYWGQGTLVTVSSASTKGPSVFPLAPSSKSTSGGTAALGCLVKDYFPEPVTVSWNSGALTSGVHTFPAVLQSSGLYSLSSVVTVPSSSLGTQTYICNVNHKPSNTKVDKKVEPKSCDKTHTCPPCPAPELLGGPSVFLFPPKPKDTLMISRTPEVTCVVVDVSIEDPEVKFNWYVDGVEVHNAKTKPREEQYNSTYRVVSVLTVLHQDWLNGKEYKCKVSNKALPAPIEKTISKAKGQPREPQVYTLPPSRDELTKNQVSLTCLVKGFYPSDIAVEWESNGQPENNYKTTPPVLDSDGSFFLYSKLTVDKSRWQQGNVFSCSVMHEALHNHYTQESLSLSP
light: B1 light
notes: also called Ho Ab H268_07I
B41: GpH7-B3 variant H268_08L/GpL16-k0 (antibody, human IgG1, kappa)
heavy: not shown
light: B1 light
notes: also called Ho Ab H268_08L
B42: GpH7-B3 variant H268_12R/GpL16-k0 (antibody, human IgG1, kappa)
heavy: not shown
light: B1 light
notes: also called Ho Ab H268_12R
B43: GpH7-B3 variant H268_14T/GpL16-k0 (antibody, human IgG1, kappa)
heavy: not shown
light: B1 light
notes: also called Ho Ab H268_14T
B44: GpH7-B3 variant H268_20W/GpL16-k0 (antibody, human IgG1, kappa)
heavy: not shown
light: B1 light
notes: also called Ho Ab H268_20W
B45: GpH7-B3 variant I332_12R/GpL16-k0 (antibody, human IgG1, kappa)
heavy: not shown
light: B1 light
notes: also called Ho Ab I332_12R
B46: GpH7-B3 variant I336_01G/GpL16-k0 (antibody, human IgG1, kappa)
heavy: not shown
light: B1 light
notes: also called Ho Ab I336_01G
B47: GpH7-B3 variant I336_02A/GpL16-k0 (antibody, human IgG1, kappa)
heavy: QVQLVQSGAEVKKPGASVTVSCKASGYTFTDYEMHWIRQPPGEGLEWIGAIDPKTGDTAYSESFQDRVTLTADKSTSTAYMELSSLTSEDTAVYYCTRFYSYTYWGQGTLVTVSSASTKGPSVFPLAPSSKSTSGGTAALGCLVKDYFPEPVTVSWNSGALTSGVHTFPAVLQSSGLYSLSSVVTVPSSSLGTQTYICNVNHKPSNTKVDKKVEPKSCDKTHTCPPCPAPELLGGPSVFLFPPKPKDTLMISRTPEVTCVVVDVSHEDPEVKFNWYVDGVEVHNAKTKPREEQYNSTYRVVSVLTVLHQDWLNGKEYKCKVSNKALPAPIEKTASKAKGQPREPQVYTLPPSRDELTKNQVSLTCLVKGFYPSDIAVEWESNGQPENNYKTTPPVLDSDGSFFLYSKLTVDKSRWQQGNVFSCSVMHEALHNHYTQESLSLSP
light: B1 light
notes: also called Ho Ab I336_02A
B48: GpH7-B3 variant I336_03V/GpL16-k0 (antibody, human IgG1, kappa)
heavy: not shown
light: B1 light
notes: also called Ho Ab I336_03V
B49: GpH7-B3 variant I336_04F/GpL16-k0 (antibody, human IgG1, kappa)
heavy: not shown
light: B1 light
notes: also called Ho Ab I336_04F
B50: GpH7-B3 variant I336_06M/GpL16-k0 (antibody, human IgG1, kappa)
heavy: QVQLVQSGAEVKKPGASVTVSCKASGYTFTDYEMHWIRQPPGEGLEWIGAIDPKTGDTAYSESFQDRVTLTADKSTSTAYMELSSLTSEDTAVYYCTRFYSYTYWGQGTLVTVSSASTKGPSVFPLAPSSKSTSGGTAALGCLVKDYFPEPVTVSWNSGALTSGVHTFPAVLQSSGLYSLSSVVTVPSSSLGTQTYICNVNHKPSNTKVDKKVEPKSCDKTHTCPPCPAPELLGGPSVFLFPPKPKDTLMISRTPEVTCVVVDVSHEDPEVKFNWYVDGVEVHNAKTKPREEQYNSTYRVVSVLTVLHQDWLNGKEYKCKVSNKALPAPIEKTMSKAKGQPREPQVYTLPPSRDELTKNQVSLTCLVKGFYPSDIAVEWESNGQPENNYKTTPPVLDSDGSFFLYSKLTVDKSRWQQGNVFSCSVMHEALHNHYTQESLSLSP
light: B1 light
notes: also called Ho Ab I336_06M
B51: GpH7-B3 variant I336_10E/GpL16-k0 (antibody, human IgG1, kappa)
heavy: not shown
light: B1 light
notes: also called Ho Ab I336_10E
B52: GpH7-B3 variant I336_18N/GpL16-k0 (antibody, human IgG1, kappa)
heavy: not shown
light: B1 light
notes: also called Ho Ab I336_18N
B53: GpH7-B3 variant K326_12R/GpL16-k0 (antibody, human IgG1, kappa)
heavy: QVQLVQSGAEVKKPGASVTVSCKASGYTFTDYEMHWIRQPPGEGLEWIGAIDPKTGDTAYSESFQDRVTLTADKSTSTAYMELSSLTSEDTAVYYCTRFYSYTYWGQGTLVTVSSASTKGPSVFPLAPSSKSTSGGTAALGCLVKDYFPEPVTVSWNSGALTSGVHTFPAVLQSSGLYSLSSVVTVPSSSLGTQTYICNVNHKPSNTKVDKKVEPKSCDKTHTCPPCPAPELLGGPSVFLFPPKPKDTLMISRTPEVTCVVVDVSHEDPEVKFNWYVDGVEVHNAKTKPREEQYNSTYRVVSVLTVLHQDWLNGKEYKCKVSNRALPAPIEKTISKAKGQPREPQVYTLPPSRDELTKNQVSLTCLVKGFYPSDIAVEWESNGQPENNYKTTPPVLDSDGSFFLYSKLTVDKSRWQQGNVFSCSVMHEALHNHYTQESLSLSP
light: B1 light
notes: also called Ho Ab K326_12R
B54: GpH7-B3 variant K326_14T/GpL16-k0 (antibody, human IgG1, kappa)
heavy: not shown
light: B1 light
notes: also called Ho Ab K326_14T
B55: GpH7-B3 variant K326_15Y/GpL16-k0 (antibody, human IgG1, kappa)
heavy: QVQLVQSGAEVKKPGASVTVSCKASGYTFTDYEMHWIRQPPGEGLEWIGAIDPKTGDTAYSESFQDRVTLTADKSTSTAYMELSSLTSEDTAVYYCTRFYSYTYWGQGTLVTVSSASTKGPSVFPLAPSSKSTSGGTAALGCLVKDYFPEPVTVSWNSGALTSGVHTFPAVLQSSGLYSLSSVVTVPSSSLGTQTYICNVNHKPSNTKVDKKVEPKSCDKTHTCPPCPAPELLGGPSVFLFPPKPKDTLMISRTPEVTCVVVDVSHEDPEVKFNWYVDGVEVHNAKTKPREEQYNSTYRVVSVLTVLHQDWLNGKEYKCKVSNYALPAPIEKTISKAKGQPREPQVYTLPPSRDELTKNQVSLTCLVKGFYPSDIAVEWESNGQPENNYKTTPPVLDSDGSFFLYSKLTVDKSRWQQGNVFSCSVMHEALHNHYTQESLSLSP
light: B1 light
notes: also called Ho Ab K326_15Y
B56: GpH7-B3 variant K326_16H/GpL16-k0 (antibody, human IgG1, kappa)
heavy: not shown
light: B1 light
notes: also called Ho Ab K326_16H
B57: GpH7-B3 variant K326_18N/GpL16-k0 (antibody, human IgG1, kappa)
heavy: not shown
light: B1 light
notes: also called Ho Ab K326_18N
B58: GpH7-B3 variant K334_06M/GpL16-k0 (antibody, human IgG1, kappa)
heavy: not shown
light: B1 light
notes: also called Ho Ab K334_06M

What follows are binders tested against T1, FcγRIa (human, UniProt P12314 16-292) (assay: SPR (Biacore); Ho Ab relative to HoCon Ab = 100).
T1 construct: extracellular domain; also called FcgRI; 1a
Protocol: Analysis of interaction between objective antibody and the FcγR was carried out using Biacore T100 (GE Healthcare). HBS-EP+ (GE Healthcare) was used as the running buffer, and the measurement temperature was set to 25° C. Chips produced by immobilizing the antigen peptide by the amine coupling method to a Series S Sencor Chip CM5 (GE Healthcare), or alternatively, chips produced by allowing preliminarily biotinylated antigen peptides to interact with and immobilize onto a Series S Sensor Chip SA (certified) (GE Healthcare) were used. Antibodies of interest were captured onto an antigen peptide-immobilized chip, and allowed to interact to each FcγR diluted with running buffer. To regenerate and repeatedly use the chip, the antibodies captured on the chip were washed off by reacting 10 mM glycine-HCl, pH 1.5.

T1 sequence (P12314 16-292): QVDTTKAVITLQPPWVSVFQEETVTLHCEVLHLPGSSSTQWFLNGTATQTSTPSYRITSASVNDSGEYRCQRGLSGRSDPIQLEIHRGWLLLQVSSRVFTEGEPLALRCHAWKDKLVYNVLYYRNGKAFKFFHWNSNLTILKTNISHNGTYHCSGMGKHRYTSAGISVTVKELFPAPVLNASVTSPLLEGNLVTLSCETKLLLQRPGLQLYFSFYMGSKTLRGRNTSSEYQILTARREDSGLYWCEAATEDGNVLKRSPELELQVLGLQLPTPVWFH

Row | Binder | Ho/Con_1a
1 | B1 | 106 % of control
2 | B2 | 108 % of control
3 | B3 | 94.1 % of control
4 | B4 | 105 % of control
5 | B5 | 104 % of control
6 | B6 | 96.2 % of control
7 | B7 | 95.4 % of control
8 | B8 | 102 % of control
9 | B9 | 95.7 % of control
10 | B10 | 101 % of control
11 | B11 | 97.1 % of control
12 | B12 | 101 % of control
13 | B13 | 106 % of control
14 | B14 | 95.9 % of control
15 | B15 | 96.2 % of control
16 | B16 | 100 % of control
17 | B17 | 98.4 % of control
18 | B18 | 92.7 % of control
19 | B19 | 99.6 % of control
20 | B20 | 98.9 % of control

Row | Binder | Ho/Con_1a
21 | B21 | 100 % of control
22 | B22 | 96.2 % of control
23 | B23 | 98.4 % of control
24 | B24 | 98.4 % of control
25 | B25 | 99.2 % of control
26 | B26 | 99.5 % of control
27 | B27 | 99.9 % of control
28 | B28 | 99 % of control
29 | B29 | 103 % of control
30 | B30 | 95.8 % of control
31 | B31 | 94.2 % of control
32 | B32 | 101 % of control
33 | B33 | 98.7 % of control
34 | B34 | 100 % of control
35 | B35 | 99.1 % of control
36 | B36 | 92.4 % of control
37 | B37 | 104 % of control
38 | B38 | 106 % of control
39 | B39 | 108 % of control
40 | B40 | 106 % of control

Row | Binder | Ho/Con_1a
41 | B41 | 105 % of control
42 | B42 | 105 % of control
43 | B43 | 109 % of control
44 | B44 | 106 % of control
45 | B45 | 93.2 % of control
46 | B46 | 104 % of control
47 | B47 | 103 % of control
48 | B48 | 105 % of control
49 | B49 | 104 % of control
50 | B50 | 104 % of control
51 | B51 | 107 % of control
52 | B52 | 104 % of control
53 | B53 | 100 % of control
54 | B54 | 103 % of control
55 | B55 | 101 % of control
56 | B56 | 101 % of control
57 | B57 | 102 % of control
58 | B58 | 104 % of control
